This is an account of results in publication PMC4022651, “Substitutional Analysis of the C-Terminal Domain of AbrB Revealed Its Essential Role in DNA-Binding Activity”.

Where only a bound is given, the exact number is not on record here.

In data set [1] the target is T1, AbrB wt (Bacillus subtilis 168, UniProt P08874 3-96).
T1 sequence: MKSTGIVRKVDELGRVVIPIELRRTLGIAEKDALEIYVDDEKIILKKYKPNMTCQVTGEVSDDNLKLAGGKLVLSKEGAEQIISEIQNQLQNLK
Put plainly: EMSA. To be noted: apparent KD', from plot against AbrB tetramer; 20 mM Tris-HCl pH 8, 100 mM KCl, 5 mM MgCl2, 1 mM DTT, 10% glycerol, 0.1 mg/ml poly(dI-dC), room temperature, 20 min; 1.14 nM phyC or 0.95 nM sinIR DNA.

Data set [2] deals with AbrB R15A (Bacillus subtilis 168). Nature of the data set: EMSA. The following applies: apparent KD', from plot against AbrB tetramer; 20 mM Tris-HCl pH 8, 100 mM KCl, 5 mM MgCl2, 1 mM DTT, 10% glycerol, 0.1 mg/ml poly(dI-dC), room temperature, 20 min; 1.14 nM phyC or 0.95 nM sinIR DNA.
The target in data set [3] is AbrB Q91A (B. subtilis). Put plainly: SEC; analytical gel filtration (FPLC) on Superdex 75 5/150 GL; running buffer condition I: 50 mM HEPES pH 7.5, 300 mM NaCl, 2 mM β-mercaptoethanol, no glycerol; 100 µl protein applied; 0.2 ml/min; polymeric forms as % of the areas under the curve of all protein peaks.
Data set [4] concerns the target AbrB Q91A (B. subtilis). Put plainly: SEC; analytical gel filtration (FPLC) on Superdex 75 5/150 GL; running buffer condition II: 50 mM HEPES pH 7.5, 300 mM NaCl, 2 mM β-mercaptoethanol with 10% glycerol; 60 µl (100 µg) protein applied; 0.2 ml/min; polymeric forms as % of the areas under the curve of all protein peaks.
Data set [5] addresses AbrB E80A (B. subtilis). Put plainly: SEC; analytical gel filtration (FPLC) on Superdex 75 5/150 GL; running buffer condition I: 50 mM HEPES pH 7.5, 300 mM NaCl, 2 mM β-mercaptoethanol, no glycerol; 100 µl protein applied; 0.2 ml/min; polymeric forms as % of the areas under the curve of all protein peaks.
The target of data set [6] is AbrB E80A (B. subtilis). Nature of the data set: SEC; analytical gel filtration (FPLC) on Superdex 75 5/150 GL; running buffer condition II: 50 mM HEPES pH 7.5, 300 mM NaCl, 2 mM β-mercaptoethanol with 10% glycerol; 60 µl (100 µg) protein applied; 0.2 ml/min; polymeric forms as % of the areas under the curve of all protein peaks.
Data set [7] has as its target T1, AbrB wt. Nature of the data set: EMSA; shift above 0.1 uM, no super shift; 20 mM Tris-HCl pH 8, 100 mM KCl, 5 mM MgCl2, 1 mM DTT, 10% glycerol, 0.1 mg/ml poly(dI-dC), room temperature, 20 min; 1.14 nM phyC or 0.95 nM sinIR DNA. To be noted: protein: recombinant; tags: His6; chain copies: 4; label: 5'-32P; blunt.

Regarding phyC promoter 440 bp, the results for the Kd in data set [1] and in data set [2] were 0.66 µM and 3.4 µM, respectively.
Regarding AbrB Q91A (natural protein), in data set [3], the % of the protein (AUC) in the form with n 4.7 came to 85% and the % of the protein (AUC) in the form with n 8.2 amounted to 15%. In data set [4], this molecule came in with a % of the protein (AUC) in the form with n 4.1 of over 95% and a stoichiometry N of 4.1.
On to AbrB E80A (natural protein), for which, in data set [5], the % of the protein (AUC) in the form with n 3.9 is 78% and the % of the protein (AUC) in the form with n 8.2 stood at 22%. Also, in data set [6], the % of the protein (AUC) in the form with n 4.5 is 90% and the % of the protein (AUC) in the form with n 56.3 stood at 10%.

B1: sinIR P1 AbrB site 36 bp (dsDNA)
DNA 1: GTGATTTAATGGCAAATGACTTCCAGAGACTAATGA
DNA 2: TCATTAGTCTCTGGAAGTCATTTGCCATTAAATCAC
B1: the binding result in data set [7] is “binds”.
